According to paper PMC7736812:

Target: 70S ribosomes from E. coli MRE600 (vacant) (E. coli)
Experiment: stopped-flow Rayleigh light scattering (325 nm) of 70S dissociation; 70S ribosomes (0.05 uM) rapidly mixed with increasing GTPBP6 with 0.5 mM GTP, phosphoenol pyruvate and pyruvate kinase; 50 mM Tris-HCl pH 7.5, 70 mM NH4Cl, 30 mM KCl, 7 mM MgCl2, 37°C; kapp against GTPBP6 concentration, linear fit: slope = association, intercept = dissociation rate constant, Kd from their ratio

Kd: 700 nM
koff: 0.09 s⁻¹
kon: 130000 M⁻¹ s⁻¹
B1: GTPBP6Δ43 (purified recombinant GTPBP6) (domain or fragment)
chain: PGNLEGPWGGGRGLRADGGRSRTGDDEEEPEDADENAEEELLRGEPLLPAGTQRVCLVHPDVKWGPGKSQMTRAEWQVAEATALVHTLDGWSVVQTMVVSTKTPDRKLIFGKGNFEHLTEKIRGSPDITCVFLNVERMAAPTKKELEAAWGVEVFDRFTVVLHIFRCNARTKEARLQVALAEMPLHRSNLKRDVAHLYRGVGSRYIMGSGESFMQLQQRLLREKEAKIRKALDRLRKKRHLLRRQRTRREFPVISVVGYTNCGKTTLIKALTGDAAIQPRDQLFATLDVTAHAGTLPSRMTVLYVDTIGFLSQLPHGLIESFSATLEDVAHSDLILHVRDVSHPEAELQKCSVLSTLRGLQLPAPLLDSMVEVHNKVDLVPGYSPTEPNVVPVSALRGHGLQELKAELDAAVLKATGRQILTLRVRLAGAQLSWLYKEATVQEVDVIPEDGAADVRVIISNSAYGKFRKLFPG
